Results taken from the Human Domainome abundance scans (Beltran et al. 2025).
± gives the uncertainty stated by the source.

B1: PDZ and LIM domain protein 2, residues 284 to 339; numbered along this chain, Q96JY6 (parent)
chain: HTCEKCSTSIANQAVRIQEGRYRHPGCYTCADCGLNLKMRGHFWVGDELYCEKHAR
B2: V(D)J recombination-activating protein 2, residues 415 to 491; numbered along this chain, P55895 (parent)
chain: YWITCCPTCDVDINTWVPFYSTELNKPAMIYCSHGDGHWVHAQCMDLAERTLIHLSAGSNKYYCNEHVEIARALHTP

Variants of: B1
Assay: abundance fitness (aPCA) (normalised: wild type 0, dead -1); higher = more abundant; growth selection in yeast, the domain comes from the species named
Settings: Homo sapiens

Variant	abundance fitness
H54Y	-0.284 ± 0.15
H54T	-0.7 ± 0.18
H54M	-0.901 ± 0.25
H54S	-0.522 ± 0.097
H54N	-0.465 ± 0.33
H54P	-0.771 ± 0.18
H54V	-0.612 ± 0.067
H54R	-0.655 ± 0.087
H54L	-0.653 ± 0.091
H54W	-0.856 ± 0.081
H54Q	-0.759 ± 0.15
A55Q	0.041 ± 0.15
A55S	0.148 ± 0.1
A55P	-0.414 ± 0.22
A55F	0.12 ± 0.081
A55Y	0.081 ± 0.073

Variant	abundance fitness
A55D	-0.097 ± 0.11
A55T	-0.013 ± 0.11
A55W	0.063 ± 0.056
A55V	-0.172 ± 0.084
A55M	-0.066 ± 0.091
A55R	0.005 ± 0.074
A55I	-0.203 ± 0.26
A55E	-0.309 ± 0.16
A55C	-0.108 ± 0.1
A55G	-0.079 ± 0.084
R56V	0.049 ± 0.14
R56W	-0.344 ± 0.084
R56E	0.263 ± 0.16
R56L	0.797 ± 0.18
R56C	0.093 ± 0.3
R56G	0.068 ± 0.088

Variants of: B2
Assay: as above
Settings: Homo sapiens

Variant	abundance fitness
Y31D	-0.28 ± 0.15
Y31H	-0.061 ± 0.18
Y31P	-0.245 ± 0.093
Y31S	-0.188 ± 0.063
C32T	-0.99 ± 0.18
C32G	-1.17 ± 0.17
C32F	-0.946 ± 0.3
C32W	-0.861 ± 0.15
Q43A	-0.397 ± 0.5
Q43R	0.129 ± 0.17
Q43P	-0.771 ± 0.48
I70Y	0.064 ± 0.14
I70R	0.015 ± 0.03
I70S	-0.145 ± 0.14
T76N	-0.13 ± 0.13
T76V	-0.074 ± 0.064
T76K	0.081 ± 0.094
T76H	-0.149 ± 0.2
E49S	-0.243 ± 0.069
E49G	-0.295 ± 0.044
E49Q	-0.019 ± 0.093
E49M	-0.168 ± 0.067
E49V	-0.264 ± 0.049

Variant	abundance fitness
E49T	-0.345 ± 0.075
E49F	-0.149 ± 0.093
C64R	-0.945 ± 0.11
C64L	-1.07 ± 0.2
C64E	-1.05 ± 0.25
C64V	-0.557 ± 0.081
D10Q	0.121 ± 0.21
D10A	0.065 ± 0.14
D10S	-0.114 ± 0.21
D10N	0.033 ± 0.14
D12E	0.083 ± 0.42
D12F	-0.244 ± 0.38
D12P	-0.392 ± 0.21
D12S	-0.229 ± 0.22
D12G	-0.04 ± 0.14
D12N	-0.01 ± 0.37
D12L	-0.332 ± 0.11
D12W	-0.317 ± 0.28
W2E	-0.231 ± 0.076
W2R	-0.378 ± 0.054
V40L	-0.043 ± 0.062
V40K	-0.316 ± 0.13
V40T	-0.427 ± 0.14

Variant	abundance fitness
V40F	-0.852 ± 0.3
Y63C	0.188 ± 0.11
Y63W	0.115 ± 0.12
Y63V	-0.051 ± 0.069
N65F	-0.172 ± 0.12
N65R	0.079 ± 0.045
N65T	-0.005 ± 0.074
N65I	0.185 ± 0.13
N65Y	-0.318 ± 0.36
N65Q	-0.181 ± 0.14
N65M	-0.12 ± 0.085
N65C	-0.138 ± 0.1
D36P	-0.011 ± 0.14
D36Y	-0.32 ± 0.41
G58Y	-0.126 ± 0.11
G58Q	0.025 ± 0.092
C44D	-0.765 ± 0.17
C44L	-0.806 ± 0.064
C44N	-0.732 ± 0.32
C44K	-1.23 ± 0.38
C44H	-1.09 ± 0.3
C44R	-1.02 ± 0.1
C44E	-1.08 ± 0.23

Variant	abundance fitness
C44Q	-0.969 ± 0.12
C44M	-1.15 ± 0.45
C44W	-0.98 ± 0.14
W16L	-0.346 ± 0.2
N14R	-0.137 ± 0.2
N14V	-0.149 ± 0.23
N14Q	-0.332 ± 0.29
N14A	-0.509 ± 0.4
T4S	-0.037 ± 0.054
T4E	-0.057 ± 0.063
T4F	-0.101 ± 0.1
T4K	-0.048 ± 0.069
T4I	-0.016 ± 0.1
T4A	-0.122 ± 0.046
P18M	-0.579 ± 0.24
P18L	-0.038 ± 0.25
P18I	-0.892 ± 0.29
L47K	-0.515 ± 0.086
L47F	-0.133 ± 0.1
L47D	-0.571 ± 0.13
L47P	-0.684 ± 0.09
L47M	0.05 ± 0.057
Y20P	-0.378 ± 0.26

Variant	abundance fitness
R50T	0.049 ± 0.06
R50F	-0.04 ± 0.081
R50N	-0.215 ± 0.14
R50G	0.036 ± 0.051
R50E	0.039 ± 0.076
R50H	0.037 ± 0.14
H75I	-0.003 ± 0.14
H75L	-0.013 ± 0.049
H75Y	-0.179 ± 0.1
L52T	-0.161 ± 0.086
L52A	-0.144 ± 0.082
L52V	-0.033 ± 0.074
L52N	-0.304 ± 0.28
L52W	-0.006 ± 0.092
L52Y	-0.318 ± 0.19
L52C	-0.145 ± 0.089
T15H	0.03 ± 0.29
T15M	-0.011 ± 0.3
M45D	-0.193 ± 0.21
M45W	-0.431 ± 0.13
M45Q	0.032 ± 0.057
M45T	-0.395 ± 0.099
M45E	-0.265 ± 0.13

Variant	abundance fitness
V17I	-0.153 ± 0.2
V17W	-0.117 ± 0.15
I13S	-0.264 ± 0.3
I13M	-0.284 ± 0.34
I13E	0.172 ± 0.29
I13C	-0.059 ± 0.23
I13A	-0.149 ± 0.39
I13G	-0.193 ± 0.14
S33E	0.036 ± 0.061
S33P	-0.126 ± 0.062
S33L	-0.095 ± 0.039
A42K	-0.411 ± 0.11
A42M	-0.313 ± 0.14
A42C	-0.118 ± 0.077
A42P	-0.717 ± 0.15
A42E	-0.883 ± 0.14
A42I	-0.563 ± 0.38
P77C	-0.243 ± 0.34
P77G	-0.157 ± 0.35
P77W	-0.237 ± 0.38
